Data on 14 sequences can be found in the DeepSol protein solubility set.

The data set in a line: soluble on expression in E. coli; label from the status in PepcDB or PDB records.
For the sequence “MGSDKIHHHHHHVSIPANNSPVRLALIGAGRWGKNYIRTIAGLPGAALVRLASSNPDNLALVPPGCVIESDWRSVVSAPEVEAVIIATPPATHAEITLAAIASGKAVLVEKPLTLDLAEAEAVAAAAKATGVMVWVEHTQLFNPAWEALKADLTSIGPILAVRSEAGNHGPYRPGGVPMLWDWGAHDVSMVLDLMGRDPDSTSASWAARGEKDGGEAGDVTLTLAFSTVEAHIRLCNTMDKCRRLAVFGEAGTLVMDDRATDKLTLHPPQPDGNWPVGQGHALTVTDEMPLTRAVRLFAGAVRQPEPGPSPLELGLRVVRVLGACS”, the “soluble on expression in E. coli” value is listed as “not soluble”.
The same measure for “NMDVDIMSNQDEWRLYRYFIGRSKQTYARPSGSGTSTNEILQEGYYKVPIFARSRYWFNGEYWPALFEQAYANWKFPNDSKYNAILQIGGGWPEEALCELSGDSWFTSSGKLMLSSFTDLSLLNFMKSMCYSWKTIKPMVIVTPCWEPLPPMMPGIAAYH”: “not soluble”; for “MSEVDKAHLAAINKDVQANDTLFGKIIRKEIPAKIIFEDDEALAFHDVSPQAPIHFLVIPKRRIDMLENAVDSDAALIGKLMVTASKVAKQLGMANGYRVVVNNGKDGAQSVFHLHLHVLGGRQLQWPPG”: “not soluble”.
With “MGSDKIHHHHHHVVYRYGLALVTQPPLVSLEDLGYGHGPGQRLFDGLSLHIHSGECHCICGPTGSGKSSLLALIAGLNERPFAGVLECQSGVQVALVMQDPQVQLLRRTLGAEVAFGLENQGVAADDMPAAVKSALIRVGLELPLDTCIDTLSLGQKYRVMLASQLVLNPRVLLLDEPWAQLDDEGVGQLMVTLARLKADGMALIIAEHHPAAFAGLLDFHWLLDQGRLQPAAAGKASGALRADILCRWNPNGLGGRKCLTLAPCDLVLPTLAQGGRGRSGSKGFLSARFASAAPEGRSLFRLDTPLVLRTGDIRLLLGDNGSGKSTLLKALAGLQDGVKLPVKLDGRIPNTAAGEVALMLQRPSRQLFELTVVEELSFSIRRRGLDEAQVAWVQAFLAIEHLAAVSPHKLSWGQQHLVLLAALVITEPRLLLLDDPFAGLDEQSLMACIKLLNWYLSRGGCCVLACHRDVTGFEQVARWQLKDGLLTEVEASGQALAARDGAQTKPWELAAGGMGR”, the “soluble on expression in E. coli” value is reported as “not soluble”.
The result for “KQKKMQAMIVTSKPYCVIKRIHRDLHRGVTCINDAEGTYNHEKKAVLITILTREEFSDFKYLMLKADPKAFVSVAENVHIIGRFVDDD” reads “not soluble”; that for “MGSDKIHHHHHHMQINRLTLTNFRGLTNSVLDFAPGFNLVVGVNGVGKTAVLEALRILLAKALPSFAEVRGFPGIGLTKDDITIDRKQAAIEVSFTHQAHTFSLLLSDQLEVVRDAVDEQKGLKDIRDIDELASLRHGQRPERGDPRLEGTLRGQTSERPRASGQLSPTPDRALKKSKPQPIVLYFSVRRAVPSPGTPKTKAGTPYQGIFEIERGLELGKIIEWWNSKATVAREAPDSRSAKQLTTTCNALERLLPHLSDWKVEDGNFTVCKVADVGVLNDESGEFEVKQETRRLPVQFLSDGERSLIAIGIDIAYRLASLNEDSETPLDDGEGIVLIDELDLHLHPQWQRTVVELLRTAFPKLQFICTTHSLFLIQSQRMGNLIQLDRIGDEEESAEQYHNQSIEDIAEEVQGIDLPQRSKRHVELMLAASEYYRALKKAEDDPNIPIEELKEKYEALSLRYSADPLVAAALDFRWETFVFKRNHATRR”, “not soluble”; that for “MSKYWSNIVKKISPYVPGEQPKDKKYIKLNTNENPYPPSEKVLKAISAAVNESLRLYPDPACESLRNTLAKYYGIKASEVFVGNGSDELLAFSFMAFFNPGDTIIFPDITYSFYEVYSSMFSVNYRLIPLDDEFNVPVEEFFTENDGIILANPNAPTGKALPLQSIRKILEKNDDKVVIIDEAYVDFGARSSVPLIKEFENLLVIQTLSKSRALAGLRVGFALGSEQLIEGLDRVKNSINSYTLDRLALIGAEEAIKDHEYFCEIRDKIINTREWVSKKLSSMGFKVIESKANFIFISHPKINGRLLFEKYKENNILVRHFNSPRIDNFLRVSIGSDEEMNIFCEKTKEIIESLN”, “soluble”.
On to “MVQKEGVLRVITRNSPATYFQDRNGETGFEYELAKRFAERLGVELKIETADNLDDLYAQLSREGGPALAAAGLTPGREDDASVRYSHTYLDVTPQIIYRNGQQRPTRPEDLVGKRIMVLKGSSHAEQLAELKKQYPELKYEESDAVEVVDLLRMVDVGDIDLTLVDSNELAMNQVYFPNVRVAFDFGEARGLAWALPGGDDDSLMNEVNAFLDQAKKEGLLQRLKDRYYGHVDVLGYVGAYTFAQHLQQRLPRYESHFKQSGKQLDTDWRLLAAIGYQESLWQPGATSKTGVRGLMMLTNRTAQAMGVSNRLDPKQSIQGGSKYFVQIRSELPESIKEPDRSWFALAAYNIGGAHLEDARKMAEKEGLNPNKWLDVKKMLPRLAQKQWYAKTRYGYARGGETVHFVQNVRRYYDILTWVTQPLEHHHHHH”, for which the “soluble on expression in E. coli” value is given as “soluble”.
The result for “MGSDKIHHHHHHMVKGLYTAHTGMVNEMKRMDVLANNLANSDTYGFKKEGTTSHSFKNELAIKIKDTSNYGLHKNLGSMTYGVHLGETYTDWDEGSFKVTDNPTDLAIGGKGFFAVAFTDKSGQTSVKYTRDGAFKVNADGYLVTADGDHVLNATGALSGDGGEANWVKVDPNEKFSVNSLGYITQNNQLVGTIGVVDVDNYDYIEKYGENLYNLTAGGNIIASDAEIEQGALETSNVNVVNEMVLG” reads “not soluble”; that for “MGSDKIHHHHHHMSLQSGEWREQIDEVDAALIDEFQSDFPIQERPFEAVGDALGVSAGTALDRVKTLRDDGIFRRFGPVLNPPVIGSSTLAAVSAPEDRFDEVAEIINGYRQVNHNYARDHEWNMWFVVTAGSRQRRDEILAEIEERTGCSVLVLPMLTDYYIDLEFPVVNGDRFARESLETTDATATRISEDAAADLSELDRRLLLEIQSGFPLVATPYRDVADAVDADVSEVLSAIKRLQRTGCIKRIGCVVNHIVTGFDNNCMVVWDVPDDALDERGQAVGELPYVTLCYHRPRRPEQDWQYNLFTMIHGREADIVDEKIDELATDHLPYDHGRLYSTETLKQTGARYDDIVGQ”, “not soluble”.
The result for “NKDMALTVRGNFTHAENEVIYWEQSGVNYPYQSNSGVPYKVQRGLIALGLFKDEDDIKSSPKQTFMDNYRPGDIKYKDVNGDGKIDKDDVVPLNYSAVPFIQYGFALDWNYKAFRVSILFEGVSKVQYFQGGRGFYPFLNESRGNLLEMVADPRNRWIPREYAEVNGIDPALAENPNAKFPRLTYGENKNNNQESTFWLADGKYLRLKNVDVSYRFTNNWLKSRVGVESATLSLIGENLHVWDKVKLFDPSQASGNGAEYPLQRMYTLQLNLTF” reads “not soluble”; that for “ASMTGGQQMGRILVAVLISGTGSNLQALIDSTREPNSSAQIDIVISNKAAVAGLDKAERAGIPTRVINHKLYKNRVEFDSAIDLVLEEFSIDIVCLAGFMRILSGPFVQKWNGKMLNIHPSLLPSFKGSNAHEQALETGVTVTGCTVHFVAEDVDAGQIILQEAVPVKRGDTVATLSERVKLAEHKIFPAALQLVASGTVQLGENGKICWVKEEPLEHHHHHH”, “soluble”; that for “MKNELICYKQMPVWTKDNLPQMFQEKHNTKVGTWGKLTVLKGKLKFYELTENGDVIAEHIFTPESHIPFVEPQAWHRVEALSDDLECTLGFYCKKEDYFSKKYNTTAIHGDVVDAAKIISPCKVLDLGCGQGRNSLYLSLLGYDVTSWDHNENSIAFLNETKEKENLNISTALYDINAANIQENYDFIVSTVVFMFLNRERVPSIIKNMKEHTNVGGYNLIVAAMSTDDVPCPLPFSFTFAENELKEYYKDWEFLEYNENMGELHKTDENGNRIKMKFATMLARKKLEHHHHHH”, “not soluble”.
Take “MLKTPSDAAVAGCLSLLLEVSGNPKAGNVDREHDFDDLKFEHFLASAAGAFPAFLEVAEKRIIGEGVLRAVKESMRWHRAENVHFGAFLLLVPLISSWDAG”: the “soluble on expression in E. coli” value is listed as “not soluble”.
